This data set addresses Crp (CRP, cAMP receptor protein) (Escherichia coli (purified from strain …, UniProt P0ACJ8 1-210)). As to the kind of experiment: EMSA; 20 uM cAMP; 12 ng Crp, 50 ng probe; 10 mM Tris-HCl pH 7.5, 1 mM EDTA, 100 mM KCl, 1 mM DTT, BSA (printed 10 g/mL), 5% glycerol, 20 uM cAMP, room temperature 30 min; 6% native PAGE, 1x TAE, 4 C. The conditions noted are these: protein: recombinant; tags: none (native His residues used for Ni-NTA); chain copies: 2; label: 5'-TAMRA on strand 2 (primer P11); blunt.

Chain of Crp (CRP, cAMP receptor protein) (Escherichia coli (P0ACJ8 whole entry): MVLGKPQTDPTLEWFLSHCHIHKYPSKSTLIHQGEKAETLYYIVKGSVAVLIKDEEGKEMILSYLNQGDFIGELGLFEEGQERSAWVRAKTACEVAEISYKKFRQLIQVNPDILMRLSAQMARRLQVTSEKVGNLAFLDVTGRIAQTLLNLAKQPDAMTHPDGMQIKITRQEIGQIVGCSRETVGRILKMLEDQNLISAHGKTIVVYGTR

B1: PcycA fragment 2 (73 bp) (dsDNA)
DNA 1: CAAAGACCCCGTAAGCGTGTATTTTTGTGAGCTGTTTCGCGTTATCACCGTGATATGACACTCACTTTAAACA
DNA 2: TGTTTAAAGTGAGTGTCATATCACGGTGATAACGCGAAACAGCTCACAAAAATACACGCTTACGGGGTCTTTG
Consider B1, for which the binding result is “binds”.

(Values after publication PMC8948829, “The Escherichia coli Amino Acid Uptake Protein CycA: Regulation of Its Synthesis and Practical Application in l-Isoleucine Production”.)
